From patent US20240190989A1 (BEIGENE SWITZERLAND, published 2024)
Substitutions are numbered along the chain they refer to. Names may count otherwise.

B1: BE-562 (E-muFc-BGA-5623) (bispecific antibody)
heavy: EVQLLESGGGLVQPGGSLRLSCAASGFTVSAEDVGWVRQAPGKGLEWVSAILDKGGSTYYAESVKGRFTISRDNAKNTLYLQMSSLRAEDTAVYYCARIVYHAGGGVTFDTRGQGTQVTVSSEPKSSDKTHTCPPCPAPPAAGPSVFLFPPKPKDTLMISRTPEVTCVVVDVSHEDPEVKFNWYVDGVEVHNAKTKPREEQYNSTYRVVSVLTVLHQDWLNGKEYKCKVSNKALAAPIEKTISKAKGQPREPQVYTLPPSREEMTKNQVSLTCLVKGFYPSDIAVEWESNGQPENNYKTTPPVLDSDGSFFLYSKLTVDKSRWQQGNVFSCSVMHEALHNHYTQKSLSLSPGKGGGGSQVQLVQSGAEVKKPGASVKVSCKASGYIFTSYYLHWVRQAPGQGLEWIGYINPQTGKTSYAQKFQGRVTMTRDTSTSTVYMELSSLRSEDTAVYYCAREYGNYNYPLDYWGQGTLVTVSSASTKGPSVFPLAPSSKSTSGGTAALGCLVKDYFPEPVTVSWNSGALTSGVHTFPAVLQSSGLYSLSSVVTVPSSSLGTQTYICNVNHKPSNTKVDKKVEPKSCD
light: DIQMTQSPSSLSASVGDRVTITCRASENQYGYLAWYQQKPGKVPKLLIYNYKNLVEGVPSRFSGSGSGTDFTLTISSLQPEDVATYYCQHHLGTPYTFGQGTKVEIKRTVAAPSVFIFPPSDEQLKSGTASVVCLLNNFYPREAKVQWKVDNALQSGNSQESVTEQDSKDSTYSLSSTLTLSKADYEKHKVYACEVTHQGLSSPVTKSFNRGEC
B2: BE-244 (A-(G4S)3-BGA-5623) (bispecific antibody, human IgG1, kappa)
heavy: QVQLVQSGAEVKKPGASVKVSCKASGYIFTSYYLHWVRQAPGQGLEWIGYINPQTGKTSYAQKFQGRVTMTRDTSTSTVYMELSSLRSEDTAVYYCAREYGNYNYPLDYWGQGTLVTVSSASTKGPSVFPLAPSSKSTSGGTAALGCLVKDYFPEPVTVSWNSGALTSGVHTFPAVLQSSGLYSLSSVVTVPSSSLGTQTYICNVNHKPSNTKVDKKVEPKSCDKTHTCPPCPAPPAAGPSVFLFPPKPKDTLMISRTPEVTCVVVDVSHEDPEVKFNWYVDGVEVHNAKTKPREEQYNSTYRVVSVLTVLHQDWLNGKEYKCKVSNKALAAPIEKTISKAKGQPREPQVYTLPPSREEMTKNQVSLTCLVKGFYPSDIAVEWESNGQPENNYKTTPPVLDSDGSFFLYSKLTVDKSRWQQGNVFSCSVMHEALHNHYTQKSLSLSPGKGGGGSGGGGSGGGGSEVQLLESGGGLVQPGGSLRLSCAASGFTVSAEDVGWVRQAPGKGLEWVSAILDKGGSTYYAESVKGRFTISRDNAKNTLYLQMSSLRAEDTAVYYCARIVYHAGGGVTFDTRGQGTQVTVSS
light: B1 light
B3: BE-755 (ZW1+2) (bispecific antibody, human IgG1, L234A L235A)
heavy: QVQLVQSGAEVKKPGASVKVSCKASGYIFTSYYLHWVRQAPGQGLEWIGYINPQTGKTSYAQKFQGRVTMTRDTSTSTVYMELSSLRSEDTAVYYCAREYGNYNYPLDYWGQGTLVTVSSASTKGPSVFPLAPSSKSTSGGTAWLGCEVTDYFPEPVTVSWNSGALTSGVHTFPAVLESSGLYSLSSVVTVPSSSLGTQTYICNVNHKPSNTKVDKKVEPKSCDKTHTCPPCPAPEAAGGPSVFLFPPKPKDTLMISRTPEVTCVVVSVSHEDPEVKFNWYVDGVEVHNAKTKPREEQYNSTYRVVSVLTVLHQDWLNGKEYKCKVSNKALPAPIEKTISKAKGQPREPQVYVLPPSRDELTKNQVSLLCLVKGFYPSDIAVEWESNGQPENNYLTWPPVLDSDGSFFLYSKLTVDKSRWQQGNVFSCSVMHEALHNHYTQKSLSLSPGK
light: B1 light with F116A, Q124R, L135V, T178R
chain: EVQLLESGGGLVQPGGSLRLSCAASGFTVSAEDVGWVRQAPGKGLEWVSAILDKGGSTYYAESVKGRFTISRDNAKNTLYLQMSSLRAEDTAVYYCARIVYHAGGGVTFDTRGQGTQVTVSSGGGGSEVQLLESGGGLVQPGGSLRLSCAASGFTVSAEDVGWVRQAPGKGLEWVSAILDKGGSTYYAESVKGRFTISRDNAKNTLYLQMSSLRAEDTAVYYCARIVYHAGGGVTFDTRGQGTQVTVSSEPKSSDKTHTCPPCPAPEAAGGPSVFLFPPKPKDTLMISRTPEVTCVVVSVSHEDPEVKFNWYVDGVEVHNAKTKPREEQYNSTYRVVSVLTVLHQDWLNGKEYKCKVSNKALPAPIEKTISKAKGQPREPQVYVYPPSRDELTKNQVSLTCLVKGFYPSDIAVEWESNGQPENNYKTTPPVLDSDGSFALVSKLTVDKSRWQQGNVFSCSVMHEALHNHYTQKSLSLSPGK
B4: BE-942 (ZW 1+1) (bispecific antibody, human IgG1, L234A L235A)
heavy: B3 heavy
light: B1 light with F116A, Q124R, L135V, T178R
chain: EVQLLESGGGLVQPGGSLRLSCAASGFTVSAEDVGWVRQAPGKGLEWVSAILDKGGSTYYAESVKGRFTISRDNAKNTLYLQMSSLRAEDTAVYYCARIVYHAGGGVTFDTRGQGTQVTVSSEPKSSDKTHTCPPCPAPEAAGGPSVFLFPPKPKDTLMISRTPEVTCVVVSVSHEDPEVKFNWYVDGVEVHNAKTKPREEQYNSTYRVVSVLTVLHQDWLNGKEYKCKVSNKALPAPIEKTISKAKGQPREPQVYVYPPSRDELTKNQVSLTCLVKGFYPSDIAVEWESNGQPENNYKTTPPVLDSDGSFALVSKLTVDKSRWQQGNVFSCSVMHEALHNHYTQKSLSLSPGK
B5: BE-375 (E-IgG1-BGA-5623) (bispecific antibody)
heavy: not shown
light: B1 light
B6: BE-740 (A-IgG1-BGA-5623) (bispecific antibody)
heavy: not shown
light: B1 light
B7: BE-718 (A-BGA-5623-BGA-5623) (bispecific antibody, human IgG1, kappa)
heavy: QVQLVQSGAEVKKPGASVKVSCKASGYIFTSYYLHWVRQAPGQGLEWIGYINPQTGKTSYAQKFQGRVTMTRDTSTSTVYMELSSLRSEDTAVYYCAREYGNYNYPLDYWGQGTLVTVSSASTKGPSVFPLAPSSKSTSGGTAALGCLVKDYFPEPVTVSWNSGALTSGVHTFPAVLQSSGLYSLSSVVTVPSSSLGTQTYICNVNHKPSNTKVDKKVEPKSCDKTHTCPPCPAPPAAGPSVFLFPPKPKDTLMISRTPEVTCVVVDVSHEDPEVKFNWYVDGVEVHNAKTKPREEQYNSTYRVVSVLTVLHQDWLNGKEYKCKVSNKALAAPIEKTISKAKGQPREPQVYTLPPSREEMTKNQVSLTCLVKGFYPSDIAVEWESNGQPENNYKTTPPVLDSDGSFFLYSKLTVDKSRWQQGNVFSCSVMHEALHNHYTQKSLSLSPGKGGGGSEVQLLESGGGLVQPGGSLRLSCAASGFTVSAEDVGWVRQAPGKGLEWVSAILDKGGSTYYAESVKGRFTISRDNAKNTLYLQMSSLRAEDTAVYYCARIVYHAGGGVTFDTRGQGTQVTVSSGGGGSEVQLLESGGGLVQPGGSLRLSCAASGFTVSAEDVGWVRQAPGKGLEWVSAILDKGGSTYYAESVKGRFTISRDNAKNTLYLQMSSLRAEDTAVYYCARIVYHAGGGVTFDTRGQGTQVTVSS
light: B1 light
B8: Format A BGA-3953 (bispecific antibody, human IgG1, kappa)
heavy: QVQLVQSGAEVKKPGASVKVSCKASGYIFTSYYLHWVRQAPGQGLEWIGYINPQTGKTSYAQKFQGRVTMTRDTSTSTVYMELSSLRSEDTAVYYCAREYGNYNYPLDYWGQGTLVTVSSASTKGPSVFPLAPSSKSTSGGTAALGCLVKDYFPEPVTVSWNSGALTSGVHTFPAVLQSSGLYSLSSVVTVPSSSLGTQTYICNVNHKPSNTKVDKKVEPKSCDKTHTCPPCPAPPAAGPSVFLFPPKPKDTLMISRTPEVTCVVVDVSHEDPEVKFNWYVDGVEVHNAKTKPREEQYNSTYRVVSVLTVLHQDWLNGKEYKCKVSNKALAAPIEKTISKAKGQPREPQVYTLPPSREEMTKNQVSLTCLVKGFYPSDIAVEWESNGQPENNYKTTPPVLDSDGSFFLYSKLTVDKSRWQQGNVFSCSVMHEALHNHYTQKSLSLSPGKGGGGSEVQLLESGGGLVQPGGSLRLSCAASGFTVSAEDVGWVRQAPGKGLEWVSAILDSGGSTYYAESVKGRFTISRDNAKNTLYLQMSSLRAEDTAVYYCARIVYHAGGGVTFDTRGQGTQVTVSS
light: B1 light
B9: Format A BGA-8425 (bispecific antibody, human IgG1, kappa)
heavy: B8 heavy with V483L, I553V, F563Y, T565Y
light: B1 light
B10: Format A BGA-9442 (bispecific antibody, human IgG1, kappa)
heavy: B8 heavy with V483I, I553Y, T565L
light: B1 light
B11: Format A BGA-5385 (bispecific antibody, human IgG1, kappa)
heavy: B8 heavy with V483L, S508H, I553V, V554I
light: B1 light
B12: Format A BGA-7916 (bispecific antibody, human IgG1, kappa)
heavy: B8 heavy with I553V, F563Y, T565Y
light: B1 light
B13: Format A BGA-3285 (bispecific antibody, human IgG1, kappa)
heavy: B8 heavy with V483I, S508F, I553V
light: B1 light
B14: Format A BGA-9468 (bispecific antibody, human IgG1, kappa)
heavy: B8 heavy with I553V, A557S, T565L
light: B1 light
B15: Format A BGA-7746 (bispecific antibody, human IgG1, kappa)
heavy: B8 heavy with S508F, I553V
light: B1 light
B16: BGA-3285-mutFc (Fc fusion)
chain: EVQLLESGGGLVQPGGSLRLSCAASGFTISAEDVGWVRQAPGKGLEWVSAILDFGGSTYYAESVKGRFTISRDNAKNTLYLQMSSLRAEDTAVYYCARVVYHAGGGVTFDTRGQGTQVTVSSGGGGSDKTHTCPPCPAPPAAGPSVFLFPPKPKDTLMISRTPEVTCVVVDVSHEDPEVKFNWYVDGVEVHNAKTKPREEQYNSTYRVVSVLTVLHQDWLNGKEYKCKVSNKALAAPIEKTISKAKGQPREPQVYTLPPSREEMTKNQVSLTCLVKGFYPSDIAVEWESNGQPENNYKTTPPVLDSDGSFFLYSKLTVDKSRWQQGNVFSCSVMHEALHNHYTQKSLSLSPGK
B17: BGA-3953-mutFc (Fc fusion)
chain: B16 chain with I29V, F54S, V99I
B18: BGA-7746-mutFc (Fc fusion)
chain: B16 chain with I29V
B19: BGA-5385-mutFc (Fc fusion)
chain: B16 chain with I29L, F54H, V100I, F109Y, T111Y
B20: BGA-9442-mutFc (Fc fusion)
chain: B16 chain with F54S, V99Y, T111L
B21: BGA-8425-mutFc (Fc fusion)
chain: B16 chain with I29L, F54S, F109Y, T111Y
B22: BGA-3849-mutFc (Fc fusion)
chain: B16 chain with I29L, A31H, F54S, V99Y
B23: BGA-9468-mutFc (Fc fusion)
chain: B16 chain with I29V, F54S, A103S, T111L
B24: BGA-7916-mutFc (Fc fusion)
chain: B16 chain with I29V, F54S, F109Y
B25: BGA-4988-mutFc (Fc fusion)
chain: B16 chain with I29V, F54R, F109Y

What follows are binders tested against full-length human CD137 on cells (Hut78/huCD137, HEK293 transfectants, JK-NFKB-CD137) (human, UniProt Q07011 24-255) (assay: cell-based or functional assay).
Chain of full-length human CD137 on cells (Hut78/huCD137, HEK293 transfectants, JK-NFKB-CD137) (Q07011 24-255 limits assumed): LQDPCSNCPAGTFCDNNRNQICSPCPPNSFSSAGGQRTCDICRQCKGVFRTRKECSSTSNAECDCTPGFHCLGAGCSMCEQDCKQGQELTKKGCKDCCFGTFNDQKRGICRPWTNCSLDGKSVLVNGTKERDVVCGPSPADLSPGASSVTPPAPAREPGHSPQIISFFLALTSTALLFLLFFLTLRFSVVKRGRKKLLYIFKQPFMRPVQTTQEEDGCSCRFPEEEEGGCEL

| Functional assay EC50 (PBMC cytokine release, in vitro CD137 activation) [µg/mL] | Binder |
| --- | --- |
| 4.69 | B1 |
| 0.18 | B2 |
| 1.16 | B3 |
| 25.1 | B4 |
| 1.76 | B5 |
| 0.17 | B6 |
| 0.01 | B7 |

The binders below were run against T1, human CD137 ECD-mIgG2a (human) (assay: SPR, A-CEAxCD137 format).
T1 construct: ECD 24-183 of huCD137 fused to mouse IgG2a Fc; also called huCD137-mIgG2a; huCD137
T1 sequence (chain, as listed by the source limits assumed): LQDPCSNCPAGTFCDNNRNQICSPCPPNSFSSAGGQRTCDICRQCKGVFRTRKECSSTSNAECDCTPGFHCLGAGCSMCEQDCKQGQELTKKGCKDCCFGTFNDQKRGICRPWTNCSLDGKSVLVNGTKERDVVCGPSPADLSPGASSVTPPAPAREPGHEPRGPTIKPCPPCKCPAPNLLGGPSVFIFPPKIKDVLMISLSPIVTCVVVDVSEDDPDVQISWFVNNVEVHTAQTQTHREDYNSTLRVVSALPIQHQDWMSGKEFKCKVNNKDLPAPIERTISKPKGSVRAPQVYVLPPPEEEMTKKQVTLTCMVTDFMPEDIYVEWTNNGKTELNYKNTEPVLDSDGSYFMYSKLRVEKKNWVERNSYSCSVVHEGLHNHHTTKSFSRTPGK
Method: (§1) Characterization of anti-huCD137 VH domain antibodies were made by SPR assays using BIAcore™ T-200 (GE Life Sciences). Briefly, anti-human IgG (Fc) antibody was immobilized on an activated CM5 biosensor chip (Cat.: BR100839, GE Life Sciences). Anti-huCD137 domain antibodies were flowed over the chip surface and captured by anti-human IgG (Fc) antibody. […] The equilibrium dissociation constant (KD) was calculated as the ratio koff/kₒₙ.
(§2) Affinity comparison on CD137 affinity matured variants was made by SPR assays using BIAcore™ T-200 (GE Life Sciences) and flow cytometry as described.

| Kd [nM] | Binder |
| --- | --- |
| 115 | B8 |
| 189 | B9 |
| 164 | B10 |
| 154 | B11 |
| 203 | B12 |
| 798 | B13 |
| 873 | B14 |
| 245 | B15 |

Each binder was assayed against T1, human CD137 ECD-mIgG2a (assay: SPR, Fc-fusion VH captured).
Method: as §1, §2

| Kd [nM] | Binder |
| --- | --- |
| 186 | B16 |
| 48.3 | B17 |
| 193 | B18 |
| 100 | B19 |
| 151 | B20 |
| 93.4 | B21 |
| 76.3 | B22 |
| 190 | B23 |
| 87.7 | B24 |
| 1030 | B25 |
